61 sequences from the supplement of paper PMC7877785 can be followed below.

± gives the uncertainty stated by the source.

This series in a line: self-splicing fitness, log relative to wild type (ln ratio); higher = more splicing; Tetrahymena group I intron in knt gene, E. coli kanamycin selection, DiMSum; sequences stand for … in CUCUCU…GGAGGGAAAAGUUAUCAGGCAUGCACCUGGUAGCUAGUCUUUAAACCAAUAGAUUGCAUCGGUUUAAAAGGCAAGACCGUCAAAUUGCGGGAAAGGGGUCAACAGCCGUUCAGUACCAAGUCUCAGGGGAAACUUUGAGAUGGCCUUGCAAAGGGUAUGGUAAUAAGCUGACGGACAUGGUCCUAACCACGCAGCCAAGUCCUAAGUCAACAGAUCUUCUGUUGAUAUGGAUGCAGUUCACAGACUAAAUGUCGGUCGGGGAAGAUGUAUUCUUCUCAUAAGAUAUAGUCGGACCUCUCCUUAAUGGGAGCUAGCGGAUGAAGUGAUGCAACACUGGAGCCGCUGGGAACUAAUUUGUAUGCGAAAGUAUAUUGAUUAGUUUUGGAGUACUCGUGGUCG
In outline:
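Fitness was computed with DiMSum as the error-weighted combination of replicate fold changes, kanamycin versus none, each normalised to wild type. The library randomised all eight intron nucleotides of the P1ex region, with the intron placed in the knt kanamycin-resistance gene on pET-22b(+) in E. coli BL21(DE3). Six replicate transformations were grown overnight at 37°C or 30°C on LB agar with or without 25 μg/mL kanamycin, plus 100 μg/mL carbenicillin, 50 μM IPTG and 0.2% rhamnose. Pooled colonies were amplicon-sequenced on an Illumina HiSeq 2500.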

As for CCAUAGCAAUAUUACGUGAA, the “self-splicing fitness (ln)” value is -3.25 ± 0.21 (30 °C) and -2.07 ± 0.26 (37 °C).

With CCAUAGCAAUAUUACGUGUU, the “self-splicing fitness (ln)” value was -3.47 ± 0.14 (30 °C) and -3.36 ± 0.16 (37 °C). On the same counts, the results for CCCAAGCAAUAUUACGAAGG are -3.19 ± 0.17 and -2.42 ± 0.17. On the same counts, the results for CCCAAGCAAUAUUACGACUC are -3.56 ± 0.33 and -2.1 ± 0.33. On the same counts, the results for CCCAAGCAAUAUUACGAGCU are -4.17 ± 0.19 and -2.44 ± 0.21. For the sequence CCCAAGCAAUAUUACGAGGU, the “self-splicing fitness (ln)” value (30 °C) is -3.16 ± 0.091 and the “self-splicing fitness (ln)” value (37 °C) was -2.08 ± 0.086. On the same counts, the results for CCCAAGCAAUAUUACGAGUC are -3.23 ± 0.16 and -3.28 ± 0.24. For the sequence CCCAAGCAAUAUUACGAUCC, the “self-splicing fitness (ln)” value (37 °C) was -2.85 ± 0.35. On to CCCAAGCAAUAUUACGCCCG, for which the “self-splicing fitness (ln)” value was -2.76 ± 0.33 (30 °C) and -2.44 ± 0.42 (37 °C). Turning to CCCAAGCAAUAUUACGCCUC, the “self-splicing fitness (ln)” value (30 °C) is -2.93 ± 0.25 and the “self-splicing fitness (ln)” value (37 °C) was -2.93 ± 0.34. On the same counts, the results for CCCAAGCAAUAUUACGCCUU are -3.04 ± 0.16 and -2.88 ± 0.21. On the same counts, the results for CCCAAGCAAUAUUACGCGGU are -3.41 ± 0.12 and -1.77 ± 0.12. On the same counts, the results for CCCAAGCAAUAUUACGCUAU are -3.85 ± 0.29 and -3.13 ± 0.31. Turning to CCCAAGCAAUAUUACGCUCU, the “self-splicing fitness (ln)” value is -3.91 ± 0.26 (30 °C) and -2.16 ± 0.18 (37 °C). On the same counts, the results for CCCAAGCAAUAUUACGGACA are -3.25 ± 0.27 and -2.07 ± 0.14. CCCAAGCAAUAUUACGGUGU: the “self-splicing fitness (ln)” value is, setting by setting: (30 °C) -2.71 ± 0.089; (37 °C) -1 ± 0.084. Turning to CCCAAGCAAUAUUACGUACG, the “self-splicing fitness (ln)” value by setting is: (30 °C) -3.55 ± 0.21; (37 °C) -2.9 ± 0.15.

As for CCCAAGCAAUAUUACGUCAA, the “self-splicing fitness (ln)” value runs as follows: (30 °C) -1.84 ± 0.14; (37 °C) -2.3 ± 0.19. As for CCCAAGCAAUAUUACGUCUC, the “self-splicing fitness (ln)” value is -2.71 ± 0.15 (30 °C) and -2.25 ± 0.26 (37 °C). For CCCAAGCAAUAUUACGUGCC, the “self-splicing fitness (ln)” value by setting is: (30 °C) -4.01 ± 0.29; (37 °C) -2.97 ± 0.34. On the same counts, the results for CCCAAGCAAUAUUACGUUCU are -3.36 ± 0.14 and -3.5 ± 0.22. On the same counts, the results for CCCCAGCAAUAUUACGAACC are -4.18 ± 0.34 and -2.46 ± 0.36. On the same counts, the results for CCCCAGCAAUAUUACGAAGA are -2.91 ± 0.24 and -2.52 ± 0.26. Take CCCCAGCAAUAUUACGAAGU: the “self-splicing fitness (ln)” value is, setting by setting: (30 °C) -3.84 ± 0.18; (37 °C) -3.21 ± 0.2. As to CCCCAGCAAUAUUACGAGCC, the “self-splicing fitness (ln)” value by setting is: (30 °C) -3.75 ± 0.26; (37 °C) -2.54 ± 0.25. On the same counts, the results for CCCCAGCAAUAUUACGAUAG are -3.16 ± 0.1 and -3.25 ± 0.17. On the same counts, the results for CCCCAGCAAUAUUACGAUUG are -3.58 ± 0.11 and -2.72 ± 0.14. On the same counts, the results for CCCCAGCAAUAUUACGCAUU are -4.14 ± 0.17 and -2.81 ± 0.18. On to CCCCAGCAAUAUUACGCCAA, for which the “self-splicing fitness (ln)” value by setting is: (30 °C) -2.64 ± 0.17; (37 °C) -2.7 ± 0.19. On the same counts, the results for CCCCAGCAAUAUUACGCCGG are -4.29 ± 0.21 and -1.88 ± 0.16.

On to CCCCAGCAAUAUUACGCUUG, for which the “self-splicing fitness (ln)” value is -3.52 ± 0.17 (30 °C) and -3.06 ± 0.2 (37 °C). On the same counts, the results for CCCCAGCAAUAUUACGGACU are -3.61 ± 0.14 and -3.13 ± 0.19. On the same counts, the results for CCCCAGCAAUAUUACGGCAU are -3.43 ± 0.14 and -2.42 ± 0.14. On the same counts, the results for CCCCAGCAAUAUUACGGGCA are -2.57 ± 0.13 and -1.45 ± 0.11. In the case of CCCCAGCAAUAUUACGUCUA, the “self-splicing fitness (ln)” value by setting is: (30 °C) -3.09 ± 0.14; (37 °C) -2.84 ± 0.2. For CCCCAGCAAUAUUACGUGGC, the “self-splicing fitness (ln)” value (30 °C) is -4.37 ± 0.14 and the “self-splicing fitness (ln)” value (37 °C) is -2.74 ± 0.12. On the same counts, the results for CCCCAGCAAUAUUACGUUCC are -3.87 ± 0.24 and -3.3 ± 0.3. As for CCCGAGCAAUAUUACGAAGG, under “37 °C”, the “self-splicing fitness (ln)” value is -2.18 ± 0.23. As to CCCGAGCAAUAUUACGAAGU, the “self-splicing fitness (ln)” value was -3.58 ± 0.18 (30 °C) and -2.75 ± 0.24 (37 °C). On the same counts, the results for CCCGAGCAAUAUUACGAGCA are -2.24 ± 0.27 and -2.04 ± 0.25. On the same counts, the results for CCCGAGCAAUAUUACGAGGA are -2.48 ± 0.17 and -0.976 ± 0.11. On the same counts, the results for CCCGAGCAAUAUUACGAGUC are -2.67 ± 0.31 and -1.69 ± 0.35. In the case of CCCGAGCAAUAUUACGAUAA, the “self-splicing fitness (ln)” value runs as follows: (30 °C) -1.81 ± 0.23; (37 °C) -2.73 ± 0.25. Take CCCGAGCAAUAUUACGAUCA: the “self-splicing fitness (ln)” value (30 °C) was -2.79 ± 0.28 and the “self-splicing fitness (ln)” value (37 °C) is -2.98 ± 0.33.

CCCGAGCAAUAUUACGAUCG: the “self-splicing fitness (ln)” value reads like this: (30 °C) -3.58 ± 0.32; (37 °C) -2.71 ± 0.41.

CCCGAGCAAUAUUACGAUGA: the “self-splicing fitness (ln)” value reads like this: (30 °C) -3.45 ± 0.43; (37 °C) -2.4 ± 0.28. On the same counts, the results for CCCGAGCAAUAUUACGAUUC are -4.01 ± 0.3 and -2.13 ± 0.18. With CCCGAGCAAUAUUACGCACU, the “self-splicing fitness (ln)” value by setting is: (30 °C) -2.78 ± 0.25; (37 °C) -3 ± 0.27. As for CCCGAGCAAUAUUACGCCCU, under “37 °C”, the “self-splicing fitness (ln)” value was -2.24 ± 0.33.

Turning to CCCGAGCAAUAUUACGCCGA, the “self-splicing fitness (ln)” value was -3.02 ± 0.39 (30 °C) and -2.14 ± 0.36 (37 °C). On the same counts, the results for CCCGAGCAAUAUUACGCGGU are -3.37 ± 0.16 and -2.7 ± 0.17. On the same counts, the results for CCCGAGCAAUAUUACGGACG are -3.62 ± 0.29 and -0.706 ± 0.18.

For CCCGAGCAAUAUUACGGCCA, the “self-splicing fitness (ln)” value (30 °C) is -2.88 ± 0.23 and the “self-splicing fitness (ln)” value (37 °C) is -3.57 ± 0.28. Consider CCCGAGCAAUAUUACGGGAU, for which the “self-splicing fitness (ln)” value by setting is: (30 °C) -3.31 ± 0.23; (37 °C) -2.08 ± 0.21. Turning to CCCGAGCAAUAUUACGGGCC, the “self-splicing fitness (ln)” value (30 °C) was -3.99 ± 0.27 and the “self-splicing fitness (ln)” value (37 °C) was -2.26 ± 0.26. On the same counts, the results for CCCGAGCAAUAUUACGGGGC are -3.75 ± 0.19 and -2.74 ± 0.17. On to CCCGAGCAAUAUUACGGUAU, for which the “self-splicing fitness (ln)” value is, setting by setting: (30 °C) -3.43 ± 0.22; (37 °C) -3.01 ± 0.4. On the same counts, the results for CCCGAGCAAUAUUACGUAAC are -3.43 ± 0.23 and -3.05 ± 0.28.

With CCCGAGCAAUAUUACGUACC, for the setting “30 °C”, the “self-splicing fitness (ln)” value is -2 ± 0.21. On to CCCGAGCAAUAUUACGUACU, for which the “self-splicing fitness (ln)” value was -3.49 ± 0.24 (30 °C) and -1.24 ± 0.14 (37 °C). On to CCCGAGCAAUAUUACGUCAG, for which the “self-splicing fitness (ln)” value (30 °C) is -3.49 ± 0.15 and the “self-splicing fitness (ln)” value (37 °C) was -2.51 ± 0.17.
